Results as given in paper PMC7073468, “Small RNA‐binding protein RapZ mediates cell envelope precursor sensing and signaling in Escherichia coli” (The EMBO Journal, 2020).

How the values were obtained:
RapZ = RapZ (Escherichia coli, UniProt P0A894); assay: SPR (Biacore, single-cycle kinetics); also co-purification detected by HILIC-MS/MS; assay type: binding
[1] = target: T1, Strep-RapZ (N-terminally Strep-tagged RapZ) (Escherichia coli, UniProt P0A894 1-284); assay: SPR; Biacore T200, 25°C; Strep-RapZ (200–400 RU) captured on a CM5 chip coated with Strep-Tactin XT; QseE-His10 or QseF-His10 injected at 10 nM, 50 nM, 2 × 100 nM, 250 nM, 500 nM and 1,000 nM, multicycle; HBS-EP buffer (10 mM HEPES pH 7.4, 150 mM NaCl, 3 mM EDTA, 0.005% P20); overall affinities; settings: both partners purified
T1 construct: it is not measured here; also called YhbJ; source: purified recombinant protein (procedure in the Appendix Supplementary Methods); not shown: Strep, N-terminal, kept
T1 sequence (looked up): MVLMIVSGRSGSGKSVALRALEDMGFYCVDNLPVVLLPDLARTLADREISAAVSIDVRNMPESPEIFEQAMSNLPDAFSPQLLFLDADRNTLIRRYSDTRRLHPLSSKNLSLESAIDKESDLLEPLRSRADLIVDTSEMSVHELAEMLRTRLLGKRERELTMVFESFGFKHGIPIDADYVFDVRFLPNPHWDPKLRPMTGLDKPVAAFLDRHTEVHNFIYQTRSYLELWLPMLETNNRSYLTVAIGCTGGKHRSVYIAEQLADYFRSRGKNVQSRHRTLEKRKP

## N[C@H]1C(O)O[C@H](COP(=O)(O)O)[C@@H](O)[C@@H]1O (stereo partly shown) [GlcN6P]
RapZ
  Kd: 0.186 µM

B1: QseE’-His10 (soluble cytoplasmic C-terminal part of kinase QseE, aa 196–475, with the HAMP and transmitter domains) (domain or fragment, Escherichia coli, UniProt P52101 196-475, looked up)
chain: MIIGPVKNIERMINRLGEGRSLGNSVSFSGPSELRSVGQRILWLSERLSWLESQRHQFLRHLSHELKTPLASMREGTELLADQVVGPLTPEQKEVVSILDSSSRNLQKLIEQLLDYNRKQADSAVELENVELAPLVETVVSAHSLPARAKMMHTDVDLKATACLAEPMLLMSVLDNLYSNAVHYGAESGNICLRSSLHGARVYIDVINTGTPIPQEERAMIFEPFFQGSHQRKGAVKGSGLGLSIARDCIRRMQGELYLVDESGQDVCFRIELPSSKNTK
notes: Histidine kinase QseE (a.k.a. GlrK, YfhK) of Escherichia coli, cytoplasmic part aa 196-475 (HAMP and transmitter domains); also called His10-tagged QseE’; GlrK; source: purified recombinant protein (procedure in the Appendix Supplementary Methods)
[1]
  Kd: 12 µM
  koff: 0.054 s⁻¹
  kon: 4500 M⁻¹ s⁻¹
